According to US20180171001A1 (ROCKEFELLER UNIVERSITY, published 2018):

Legend:
Test in all cases: cell-based or functional assay
Tro11 = Tro11 (Human immunodeficiency virus 1)
6535_3 = 6535_3 (Human immunodeficiency virus 1)
SC4226618 = SC4226618 (Human immunodeficiency virus 1)

B1: chimeric IgG: 8ANC195 HC paired with mature LC with CDRL2 reverted to germline (antibody, V domains shown)
VH: QIHLVQSGTEVKKPGSSVTVSCKAYGVNTFGLYAVNWVRQAPGQSLEYIGQIWRWKSSASHHFRGRVLISAVDLTGSSPPISSLEIKNLTSDDTAVYFCTTTSTYDKWSGLHHDGVMAFSSWGQGTLISVSA
VL: DIQMTQSPSTLSASIGDTVRISCRASQSITGNWVAWYQQRPGKAPRLLIYKASALLGGVPSRFSGSAAGTDFTLTIGNLQAEDFGTFYCQQYDTYPGTFGQGTKVEVK
With B1 the “IC50 (fold change over 8ANC195 IgG), pseudovirus neutralization [panel B]” value (“IC50 (fold change over 8ANC195 IgG)” for short) (Tro11) was 62 fold, the “IC50 (fold change over 8ANC195 IgG)” value (6535_3) was 31 fold and the “IC50 (fold change over 8ANC195 IgG)” value (SC4226618) was 99 fold.
